From patent US20220098328A1, “ANTIBODIES TO M(H)DM2/4 AND THEIR USE IN DIAGNOSING AND TREATING CANCER” (NomoCan Pharmaceuticals LLC, priority 2017, published 2022)

Key:
[1] = test system: human pancreatic cancer MIAPaCa-2 cells; assay: Complement-dependent cytotoxicity with normal human serum (PI staining); assay type: cell-based; conditions: antibody 30 μg/ml, NHS 1:10, 2 hours
Experimental: Methodology used: Cells seeded in 24-well dishes were grown overnight at 37° C. in a humidified atmosphere supplied with 5% CO2-95% air mixture. The following day the cells were thoroughly washed with ice-cold PBS and incubated with HDM2-specific mAb NMC-103 diluted in culture medium containing 1% BSA to a final antibody concentration of 30 μg/ml. After 30 min, NHS was added to the cells at a final concentration of 1:10 in the culture medium with 1% BSA together with 1% propidium iodide (PI) solution. Cells were then incubated with NHS for 2 hours and images were taken using EVOS FL fluorescent microscope (Life Technologies).
Methodology used: Cells seeded in 24-well dishes were grown over night at 37° C. in a humidified atmosphere supplied with 5% CO2-95% air mixture. The following day the cells were thoroughly washed with ice-cold PBS and incubated with various HDM2-specific antibodies (i.e., OP145, N-20 and C-18 antibodies; see description of the antibodies in Table 10) or control antibodies (directed to the intra-cellular protein Cytochrome C) diluted in culture medium containing 1% BSA to a final antibody concentration of 5-10 ug/ml. After 30 min, NHS was added to the cells to make a final concentration of at 1:30 in the culture medium with 1% BSA together with 1% propidium iodide (PI) solution. […]

[2] = test system: mouse pancreatic cancer Panc-2 cells; assay: Panc-2 syngeneic mouse model of pancreatic cancer; assay type: in vivo
Experimental: Methodology used (Syngeneic Mouse Models of lung, colon and pancreatic cancer): To investigate the anti-tumor effects of HDM2-specific antibodies on lung, colon and pancreatic tumors in vivo, three well-known syngeneic mouse models of lung, colon and pancreatic cancer were used (Sharma et al., 1999, J. Immunol. 163 (9):5020-5028; McIntyre, 2015, Bioassays 37(8):909-920; Li, et al., 2015, Sci. Rep. 5:7856). Subcutaneous tumors were prepared by implanting either mouse Lewis Lung cancer LL/2 cells (2.5×10^5 cells/mouse), mouse colon cancer MC-38 cells (5×10^5 cells/mouse) or mouse pancreatic cancer Panc-2 cells (2×10^6 cells/mouse) in the right flanks of 8-week-old female C57BL/6 mice (n=6-7). The mice were returned to their respective cages after tumor implantation. From day 7 after tumor implantation, the tumor volumes were measured 2 times/week with a digital caliper. In the case of MC-38 and Panc-2 study, treatment started when the tumors reached an average of 70-80 mm^3. In the case of LL/2 study, tumor cell inoculation and treatment were initiated simultaneously. Mice were micro-chipped and registered following tumor implantation. Tumor volume measurements and body weights were recorded and mice were randomized into groups that received: A) mAb NMC-103 at 0.4 mg/kg (3 times a week for 3 weeks), 2 mg/kg (2 times a week for 3 weeks), or 4 mg/kg (2 times a week for 3 weeks); B) NMC-204 at 0.4 mg/kg (3 times a week for 3 weeks); C) isotype control mouse IgG1 (Abcam, Cat. No. ab18447) or IgG3 (Abcam, Cat. No. ab18392) at 0.4 mg/kg (3 times a week for 3 weeks) or 4 mg/kg (2 times a week for 3 weeks); D) Gemcitabine (25 mg/kg) and nab-paclitaxel (5 mg/kg) 2 times a week for 3 weeks; or E) a combination of gemcitabine (25 mg/kg), nab-paclitaxel (5 mg/kg) and mAb NMC-103 (2 mg/kg; 2 times a week for 3 weeks) or (10 mg/kg; 2 times a week for 2 weeks). All tumors were injected subcutaneously and all treatments were performed by intraperitoneal injection. Any mouse displaying prolonged adverse clinical signs, or with body weight loss exceeding 15% relative to body weight at day 0, was euthanized. Tumor measurements from post-treatment with HDM2-specific antibodies versus isotype control mouse antibodies versus standard of care treatment (gemcitabine and nab-paclitaxel) were made, and results are presented in FIGS. 16-19.
The anti-tumor efficacy of NMC-103 and of its combination with pancreatic cancer standard of care treatment Gemcitabine (G) and nab-Paclitaxel (nP) was further evaluated in vivo utilizing the Panc-2 syngeneic mouse model of pancreatic cancer discussed above. In this Panc-2 study, treatment started after Panc-2 cell inoculation and when the tumors reached 80-100 mm^3, with mAb NMC-103 administered at 10 mg/kg, two times a week in a larger number of mice (n=8/group) than that used for the study of FIG. 19.
Evaluation of anti-tumor effects of antibody OP145 on pancreatic tumor growth in vivo: Subcutaneous tumors were prepared by implanting Panc02 cells (2×10^6 per mouse) in the right flanks of female 8-week-old C57BL/6 mice. The mice were returned to their respective cages after tumor implantation. From day 7 after tumor implantation, the tumor volumes were measured 2 times/week with a digital caliper. Treatment started when the tumors reached an average of 200 mm^3 (see FIG. 26, day 14). Mice were micro-chipped and registered following tumor implantation. Tumor volume measurements and body weights were recorded and mice were randomized into two groups that received either OP145 antibody (by intra-tumoral injection of 0.1 mg/kg of mouse monoclonal antibody OP145, 3 times per week) or PBS. Three mice were treated with OP145, and five mice were treated with PBS. Any mouse displaying prolonged adverse clinical signs, or with body weight loss exceeding 15% from Day 0 body weight, was euthanized. Tumor measurements from the first 10 days post treatment with OP145 antibody versus PBS were made, and results are represented in FIG. 26. […]

[3] = test system: mouse Lewis Lung cancer LL/2 cells; assay: LL/2 syngeneic mouse model of lung cancer; assay type: in vivo; conditions: LL/2 s.c. in C57BL/6 mice; 0.4 mg/kg i.p. 3 times a week for 3 weeks, started with tumor cell inoculation; by day 21
Experimental: Methodology used (Syngeneic Mouse Models of lung, colon and pancreatic cancer): To investigate the anti-tumor effects of HDM2-specific antibodies on lung, colon and pancreatic tumors in vivo, three well-known syngeneic mouse models of lung, colon and pancreatic cancer were used (Sharma et al., 1999, J. Immunol. 163 (9):5020-5028; McIntyre, 2015, Bioassays 37(8):909-920; Li, et al., 2015, Sci. Rep. 5:7856). Subcutaneous tumors were prepared by implanting either mouse Lewis Lung cancer LL/2 cells (2.5×10^5 cells/mouse), mouse colon cancer MC-38 cells (5×10^5 cells/mouse) or mouse pancreatic cancer Panc-2 cells (2×10^6 cells/mouse) in the right flanks of 8-week-old female C57BL/6 mice (n=6-7). The mice were returned to their respective cages after tumor implantation. From day 7 after tumor implantation, the tumor volumes were measured 2 times/week with a digital caliper. In the case of MC-38 and Panc-2 study, treatment started when the tumors reached an average of 70-80 mm^3. In the case of LL/2 study, tumor cell inoculation and treatment were initiated simultaneously. Mice were micro-chipped and registered following tumor implantation. […]

Row | Molecule | complement-mediated cytotoxicity (PI uptake) [1] | average tumor volume ([2]; Panc-2, n=6, start at ~70 mm^3, i.p. 2 times a week for 3 weeks (6th dose day 19), then 2 weeks off, antibody 2 mg/kg, Gemcitabine 25 mg/kg, nab-Paclitaxel 5 mg/kg, by day 35) | average tumor size / measurement ([2]; Panc-02, start at 80-100 mm^3, n=8/group, i.p. 2 times a week for 4 weeks, NMC-103 10 mg/kg, Gemcitabine 25 mg/kg, nab-Paclitaxel 5 mg/kg, by day 34, in NMC-103 groups attributed to scar and inflammation) | tumor size 6 days post single i.p. injection ([2]; Panc-2, mice pre-treated with Gemcitabine 25 mg/kg + nab-Paclitaxel 5 mg/kg for 19 days (~450 mm^3), single dose 10 mg/kg, from 438 mm^3) | tumor growth during 4 further weeks without drug treatment ([2]; Panc-02 study of FIG. 27, up to 62 days since start) | Kaplan Meier survival analysis ([2]; conditions of FIG. 27, compared to chemotherapy alone or control antibody) | tumor 10 days after re-challenge with Panc-2 cells ([2]; previously treated mice re-challenged at day 62, 2×10^6 cells s.c. left dorsal flank, no further drug) | tumor volume [3]
1 | NMC-103: mouse monoclonal antibody of the IgG1 isotype that binds to NMC-P1 (SEQ ID NO:1); VH SEQ ID NO:36, VL SEQ ID NO:37 (antibody, V domains shown, mAb NMC-103 Heavy Chain Variable Region; mAb NMC-103 Light Chain Variable Region) VH: EVQLQESGGGLVQPGGSLRLSCTTSGFTFTHYYMSWVRQPPGKALEWLGFIRNKAKGYTAEYSASVKGRFTISRDNSQSILYLQMNTLRPEDSATYYCARDIGDNWGQGTLVTVSS VL: DIVMTQAAFSNPVTLGTSASISCRSSKNLLHSNGITYLYWYLQRPGQSPQLLISRVSNLASGVPNRFSGSESGTDFTLRISRVEAEDVGVYFCAQLLELPYTFGGGTKLEIK | triggered complement-mediated cytotoxicity | 1523 mm^3 | 230 mm^3 | 233 mm^3 | no sign of tumor growth beyond the initial scar size | significant survival benefit | no tumor was observed | 
2 | NMC-204: mouse monoclonal antibody of the IgG3 isotype that binds to NMC-P2 (SEQ ID NO:2); VH SEQ ID NO:38, VL SEQ ID NO:39 (antibody, V domains shown, mAb NMC-204 Heavy Chain Variable Region; mAb NMC-204 Light Chain Variable Region) VH: EVQLQESGSVLVRPGASVKLSCKASGDTLSGSWMHWAMQRPGQGLEWIGEIHLNRGTTNYNEKFKGKATVTVDTSSSTAYVDLSSLTSEDSAVYYCARSPGFAYWGQGTLVTVSA VL: GIVMTQAAPSVPVTPGESVSISCRSSKSLLHSNGNSYLYWFLQRPGQSPQLLIYRMSNLASGVPDRFSGSGSGTAFTLRITRVEAEDVGVYYCMQHLEYPFTFGSGTKLEIK |  |  |  |  |  |  |  | 1446 mm^3
